# Experimental data reported in paper PMC5123051, “Neutralization mechanism of a highly potent antibody against Zika virus” (Nature Communications, 2016).
# B1: Fab C10 (Fab, V domains shown)
# VH: EVQLVESGAEVKKPGASVKVSCKASGYTFTSYAMHWVRQAPGQRLEWMGWINAGNGNTKYSQKFQDRVTITRDTSASTAYMELSSLRSEDTAIYYCARDKVDDYGDYWFPTLWYFDYWGQGTLVTVS
# VL: ALTQPASVSGSPGQSITISCTGTSSDVGGFNYVSWFQQHPGKAPKLMLYDVTSRPSGVSSRFSGSKSGNTASLTISGLQAEDEADYYCSSHTSRGTWVFGGGTKLTVL
# notes: heavy chain variable region of C10; human IgG1 heavy chain constant region, the part that stays in the Fab after papain digestion; light chain variable region of C10; human lambda 2 light chain constant region; Fab cut from the IgG with papain; also called Fab fragment of HMAb C10; Fab regions of C10 IgG; source: C10 IgG from HEK293T cells, transiently co-transfected, protein A purified; Fab by …
# Biological target: T1, Zika virus envelope (E) protein on purified ZIKV particles, strain H/PF/2013 (Zika virus H/PF/2013 (French Polynesia …, strain))
# T1 construct: envelope protein E of Zika virus strain H/PF/2013, cut product of the viral polyprotein, on the virus surface; Stood in the assay as whole virus particles: 180 copies of E in icosahedral symmetry, as dimers, three dimers forming a raft, 30 rafts; M protein and the lipid membrane are also present; E carries a glycan on the '150 glycan loop'; also called molecules A, B and C; source: Aedes …
# Assay: cryo-EM structure; Fab C10 mixed with purified ZIKV at 1.5 Fab to every E protein, 30 min at 37 °C then ~1 h on ice; pH8.0 (NTE buffer); 4.0 Å
# Settings: both partners purified
binder,measurement,value
B1,stoichiometry N,180 copies of Fab per virus particle
